assay: soluble on expression in E. coli; label from the status in PepcDB or PDB records

Sequence | soluble on expression in E. coli
MSHSVPNALMTGADYLDSLRDGRQVYLNGERVADVTRHRAFRNACRSIAGLYDGLHGEQRDVLTRVDAQGRRSHRFFTPAQNAEDLLGAREAIGCWSRMTYGFMGRTPDYKAAFMSGLEAGAGFYGDYRHNACAWHRAFADRGLFLNHAIINPPLDRSKAIHEMRDVFVHVERETDQGIVVSGAKMLATGSAITNATFVAPVASAQMEAGKAEDFAVVFFARMDNPGLRLMCRPSYEERASSPFDYPLSSRFDENDSVLLFDKALIPWEDVLVYRDLRRATGFYAESGFANLYNFQSGIRLGVKLELMIGLLSLGVRANGTQSFRGIQAALGELIALQHLLQALTTAMARDPERNAAGSAVPRLEYANALRIQVPQIWKRVRELLESALGGAPLVTVSGAADLRDGEARRLVDSYYRGAELEPEQRLKLFKLIWDATGSEFGARHAVYESHYSGNAEQIRLDSLAWASRRGHLAYCEAMVQRCMADYDIHGWLRGPWQHD | not soluble
MSIAIKDDDEFKTIFAEKKTQPVILFFTASWCGPCQMIKPRVEELAAEHKDRLSILKIDVDECDGVGEEYEINSMPTFLLIVDGIKKDQFSGANNTKFEEMVKAALQ | not soluble
MSILEKIFKTRKDITYMLDLDMIEDLSQQAYVKRLAIDSCIEFVARAVAQSHFKVLEGNRIQKNDVYYKLNIKPNTDLSSDSFWQQVIYKLIYDNEVLIVVSDSKELLIADSFYREEYALYDDIFKDVTVKDYTYQRTFTMQEVIYLKYNNNKVTHFVESLFEDYGKIFGRMIGAQLKNYQIRGILKSASSAYDEKNIEKLQAFTNKLFNTFNKNQLAIAPLIEGFDYEELSNGGKNSNMPFSELSELMRDAIKNVALMIGIPPGLIYGETADLEKNTLVFEKFCLTPLLKKIQNELNAKLITQSMYLKDTRIEIVGVNKKDPLQYAEAIDKLVSSGSFTRNEVRIMLGEEPSDNPELDEYLITKNYEKANSGENDEKEKDENTLKGGDEDESGD | not soluble
MSILHMPLKIKDITIKNRIMMSPMCMYSASTDGMPNDWHIVHYATRAIGGVGLIMQEATAVESRGRITDHDLGIWNDEQVKELKKIVDICKANGAVMGIQLAHAGRKCNISYEDVVGPSPIKAGDRYKLPRELSVEEIKSIVKAFGEAAKRANLAGYDVVEIHAAHGYLIHEFLSPLSNKRKDEYGNSIENRARFLIEVIDEVRKNWPENKPIFVRVSADDYMEGGINIDMMVEYINMIKDKVDLIDVSSGGLLNVDINLYPGYQVKYAETIKKRCNIKTSAVGLITTQELAEEILSNERADLVALGRELLRNPYWVLHTYTSKEDWPKQYERAFKKHHHHHH | soluble
MSIRLAQVTDIPVLKELLNQIFQVHQTVRPDLFKNTDKGSKYSETELKELLQDESKPIFVYTDGKNRVLGHLFLVIKETKGSSVSKPLKTLFIDDLCVSKEARGQKIGQELFEFALKYAKKLGCYDLTLNVWNDNKGALAFYERQGLKARETKMEKILLEHHHHHH | soluble
MSISWGAQYPKLKTNLRLGINRLQLLGKKKTEMAMKARTEIADYIAANKPDRARIRVEHIIREDYVVEAFEILEMYCDLLLARFGLIEQMKTLDDGIAEAVISIMWAAPRLATDIAEFKTISDQLTIKYGKPFAEAARANQLEFPARVNPKIISKLGAAAPPKLLVERYMIEIAAAAGVPFVPDPDVMREDEVHQAEQILIDFKNAGGNGPSGPDGPPPPPSNPYGGSGNDNGSSGGGGGYGWNLENQSAIGSGVMPHGTAIGGGVQPVSNFIPPPPNRHPNEPPQDDENIYDHIPDVSGGNIYEVPSRDHYDFPPDAFNEEPPKTNPTTGVINLPKIGPNGLPIYPGQQQPKGPGGAQAYPALSQRNSLVNPNLQPNHPTAPPQSLRKPDDFSDLSFPEPPSSFVGGNNKPGGPGGNNGGGAGNGGFDDFDDLARRFEELKKIK | not soluble
MSIVSLAKQSGLSVSSISAYENNKRQPKIESLQKISKVLGVSSAYLNGMSEEKNILNVNSQSLKNNTIDIDVIGFLLNVRSTYPGKVPIFIQDVLAGAPIYIDDNGNKLDAKKRKLLITFLKTLLN | not soluble
MSIYSKILVVADINHDEQPALARAMQLAQKSTSVSHITFFLSIYDFSYDMTSMLSLEERDAMRKGVIHQREQWMRSIAEPYLDKSVQFDIKVVWHNRPYEAIIGEIFAGEHDILIKATRKHDMLESVIFTPTDWHLMRKCPTPVLLVKNADWPENANIIASVHVGSELDTHIDLNDRMVEQLLNLSKRLGASPYLVNAYPVTPANITIELPEFDPTTYTDAVRGHHLTAMKALRQKHGLSEEQTLVQQGLPEDVIPEAAKQLNAAMVILGTTGRTGLSAVFIGNTAEHVIDKINCDVLALKPNGYVSPLDPQTAI | not soluble
MSKAKAPINTDELKQKYGRVYEIRIEGLEYENGEEAEFVFYFTRPKVSDISRFTKELNSKPDMAMKNLTFSCIVPEQEEELRQAAEEFPGLTFNTASRLMEIVGASAATSLKKL | soluble
MSKEGDILKPEEETMEFPEGDKVKVILSKEDFEASLKEAGERLVAVDFSATWCGPCRTIRPFFHALSVKHEDVVFLEVDADNCEEVVRECAIMCVPTFQFYKKEEKVDELCGALKEKLEAVIAELK | soluble
MSKFNRIHLVVLDSVGIGAAPDADKFFNAGVADTDSDTLGHISEAAGLSVPNMAKIGLGNISRPIPLKTVPTEDNPTGYVTKLEEVSLGKDTMTGHWEIMGLNITEPFDTFWNGFPEEILTKIEEFSGRKIIREANKPYSGTAVIDDFGPRQMETGELIVYTSADPVLQIAAHEDIIPVEELYKICEYARSITLERPALLGRIIARPYVGDPGNFTRTANRHDYAVSPFQDTVLNKLADAGVPTYAVGKINDIFNGSGITNDMGHNKSNSHGIDTLIKTLQLPEFTKGFSFTNLVDFDANFGHRRDPEGYRDCLHEFDNRLPEIIANMKEDDLLLITADHGNDPTYAGTDHTREYIPLLAYSVSFTGNGLIPQGHFADISATVAENFGVDTAMIGESFLSHLK | not soluble
MSKHKVSPATIAKNKKALHDYTILEKFEAGIVLQGWEVKSIRAGKVQMVDSHVHIKHGEAWLFNCLITPLLSASTHVVADAAATRKLLLNRREINKIMGRIEQKGFTCIPLSMYWKGPRVKVEIALAQGKKVHDKRQAQKDKDWAREKDRLFKKAYK | not soluble
MSKIASEVVATTLNDWYIAIKKQKVDESIKYYSEIKKLFDEMEEDQEVLAYYSLLEERHKMLLHSSRGEPLQKHTYFTEDNQNFITKTNDKLEYNFYLFEAMYEAYNKNYDRAINLYGLAEKKLAEIPDEIEAAEFYSKVSYLYTLVKQSIVAQHYIKNAISIYKRHPDYKCKLATSTMIAAANYADMKRFEEAEQYYLEAIDIAKETKDEFLKAQLFHNLSIVYSDWNKPDKCIESLEKAIGNESWLHSIYYINSLFMMIKELFKIDEKMKAINFYNKAQERLILMENKVYEAKISILYNLYCGELKNNFNNCISNIEFLKQQNELESVDELSYIAAKRFESIGAFEEATSFFNAKIWAE | soluble
MSKILVFGHQNPDSDAIGSSYAFAYLAREAYGLDTEAVALGEPNEETAFVLDYFGVAAPRVITSAKAEGAEQVILTDHNEFQQSVADIAEVEVYGVVDHHRVANFETASPLYMRLEPVGSASSIVYRMFKEHGVAVPKEIAGLMLSGLISDTLLLKSPTTHPTDKVIAPELAELAGVNLEEYGLAMLKAGTNLASKSAEELIDIDAKTFELNGNNVRVAQVNTVDIAEVLERQAEIEAAIEKAIADNGYSDFVLMITDIINSNSEILAIGSNMDKVEAAFNFVLENNHAFLAGAVSRKKQVVPQLTESFNA | soluble
MSKIRVLSVDDSALMRQIMTEIINSHSDMEMVATAPDPLVARDLIKKFNPDVLTLDVEMPRMDGLDFLEKLMRLRPMPVVMVSSLTGKGSEVTLRALELGAIDFVTKPQLGIREGMLAYSEMIAEKVRTAARARIAAHKPMAAPTTLKAGPLLSSEKLIAIGASTGGTEAIRHVLQPLPLSSPAVIITQHMPPGFTRSFAERLNKLCQISVKEAEDGERVLPGHAYIAPGDKHMELARSGANYQIKIHDGPPVNRHRPSVDVLFHSVAKHAGRNAVGVILTGMGNDGAAGMLAMYQAGAWTIAQNEASCVVFGMPREAINMGGVSEVVDLSQVSQQMLAKISAGQAIRI | soluble
MSKLDLGRVDLLSMLGNSSSAGVDTAKGVIPFSTSGATWAVPRLSEDGITSHFLRRRGYVTMTQGGSRDQNAAVRKILSLIIAYDIQTQACFFISNEESMRITMAETMGVKDRPNARTNSWAEVSDSDINRGIAKALKEGNLTLDENQKDGFMKLVHAFVADILAQSGHYKPVTSVTYFSAPIDMESDYLDPFSIAIIRDVLDDSPFSELRYDARAMSELEDRDVPITRFSRVMAQMGNAMVRNIMVLNEAAQRKLRGLAVVGEIVHGRVRAPVRYLNDSFIQTLRSNINFHLLTRTTPERWAQSWIQAFGSLKGWVDAINGIADATTEEEKKKLAMQTSMDLELLSDLTPLIRDAATSVEKFVTFAPLSFYQGLGSVTQIRALDSSTNLAAVIVRYAAKEINLIPAYQSFQVPTVDVGVKKTAIMDQRLSLQLPEFSEDQFFGMLEQRMQNMSDSEVAELVDRIAKGETPFGDVVKQLPGTSTLLVTNGYYMGGLLTNEDKIIPGDASVPALLYMQAASFASSVRFPPGEYPVFHHESSNGDVRLTDQVSADAQLSHSAVETANPLNFLVACNVSVHTPSIAIDIIEPMPDLTRRGTTEYVHKGEIKVAAIPSLPPKSADRKAQVSRETAKFERVLYKARKGGAQVAAPIDLESLFGIAVNLAVPTVKHVYSPDSKTKLALDIIKGLESEGDKAAATRLLMTLARAYTGTYSSLGLRRRDEITGIAAQPSDVAMQEFALQSGVQTLKAVAKHTGIMEVATIEMVEEKVRSLDDNRFYEIAAEVVLRALKGM | not soluble
MSKLVVIGGGPAGYVAAITAAQNGKNVTLIDEADLGGTCLNVGCMPTKSLLESAEVHDIVRKSNHYGVTLNNGSISIDWKQMQVRKSQIVTQLVQGIQYLMKKNKIKVIQGKAKFETDHRVRVTYGDKEIVVDGEQFIIATGSEPTELPFAPFDGKWILNSTHAMSLKNIPKSLLIVGGGVIGCEFASIYSRLGTKVTIVEMAPQLLPGEDEDIAHILRGKLENDGVKIFTGATLKGLNSYKKQALFEYEGGIQEVNPEFVLVSVGRKPRVQQLNLEKAGIQYSNKGISVNEHMQTNVSHIYAAGDVIGGIQLAHVAFHEGTTAALYASGEDVKVNYHAVPRCIYTAPEIASVGLTEKDAKEQYGDIQIGEFPFTANGKALIIGEQTGKVKVIVEPKYQEIVGISIIGPRATELIGQGTVMIHTEVTADIMRDYIAAHPTLSESIHEALLQAVGHAVHA | not soluble
MSKNLLIELGLEELPAYVVTPSEKQLGERLATFLTENRLSFEDIQTFSTPRRLAVRVSGLADQQTDLTEDFKGPAKKIALDADGNFSKAAQGFVRGKGLTTDAIEFREVKGEEYVYVTKHEAGKPAKEVLLGVTEVLSAMTFPVSMHWANNSFEYIRPVHTLTVLLNDEALELDFLDIHSGRVSRGHRFLGTETTITSADSYEADLRSQFVIADAKERQEMIVEQIKTLEVEQGVQVDIDEDLLNEVLNLVEFPTAFMGSFEAKYLDVPEEVLVTSMKNHQRYFVVRDQAGHLMPNFVSVRNGNDQAIENVIKGNEKVLVARLEDGEFFWREDQKLQIADLVAKLTNVTFHEKIGSLAEHMDRTRVIAASLAKEANLSAEEVTAVDRAAQIYKFDLLTGMVGEFDELQGIMGEKYALLAGEDAAVATAIREHYLPDAAGGALPETKVGAVLALAAKLDTLLSFFSVGLIPSGSNDPYALRRATQGIVRILDHFGWRIPMDKLVDSLYDLSFDSLTYANKADVMNFIRARVDKMMGKAAPKDIREAILASSTFV | not soluble

Source: the DeepSol protein solubility set
